Consider three molecules from patent US20080118487A1.

Assay [1] addresses T1, recombinant bovine mature myostatin (bovine) (UniProt O18836).
T1 sequence (looked up): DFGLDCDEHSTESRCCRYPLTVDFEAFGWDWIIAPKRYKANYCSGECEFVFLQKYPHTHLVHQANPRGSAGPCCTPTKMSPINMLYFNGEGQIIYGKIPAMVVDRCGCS
Briefly: cell-based or functional assay.

Assay [2] has as its target T2, recombinant myostatin (Example 4).
T2 sequence (O14793 267-375, species assumed, looked up): T1 sequence (looked up) with E90K, G91E
Briefly: cell-based or functional assay.

Where a chain is given by its changes, count along the chain named. Where no end group is shown, it is not given here.

B1: recombinant ovine MSV47 (roMSV47) (peptide, not shown: small tags and cut ends)
chain: IIFLEVYIQFCSILGEAVFKRQSKSIHFCQNFKIIACLCNTAAFRMK
modifications: ends and bridges not checked; also: 36-aa N-terminal pET100/D-TOPO tag (enterokinase site, Xpress epitope, His), letters not shown
For B1, in assay [1], the rescue of myostatin inhibited myoblast proliferation (C2C12, methylene blue assay) (molar ratio roMSV47 to myostatin) was 1 and the restoring proliferation of C2C12 myoblasts inhibited by myostatin (molar ratio roMSV47 to myostatin) is 10.

B2: recombinant ovine myostatin splice variant 65 (roMSV65) (peptide, not shown: small tags and cut ends)
chain: VHFYTPPYGQWIFHKERKIIFLEVYIQFCSILGEAVFKRQSKSIHFCQNFKIIACLCNTAAFRMK
Consider B2, for which, in assay [2], the rescue of myostatin inhibited myoblast proliferation (C2C12, methylene blue assay) (molar ratio roMSV65 to myostatin) turned out to be 20.

B3: recombinant human MSV38 (rhMSV38) (peptide, not shown: small tags and cut ends)
chain: VHFPTPPNEEWIFFNVRRIIFLEVGFQFCSILGETALS
modifications: also: 36-aa N-terminal pET100/D-TOPO tag (enterokinase site, Xpress epitope, His), letters not shown
With B3, in assay [1], the proliferation of primary human myoblasts inhibited by myostatin (molar ratio rhMSV38 to myostatin) was determined as 10 and the restoration of proliferation of human primary myoblasts inhibited by myostatin (methylene blue assay) (molar ratio rhMSV38 to myostatin) stood at 1.
